Earlier results on one substance are cited in PMC12298957.

pKd: −log10 of the molar value.

For the data set, the target named is FGFR2 (Homo sapiens) (UniProt P21802).
Chain of UniProt P21802 (P21802 22-377): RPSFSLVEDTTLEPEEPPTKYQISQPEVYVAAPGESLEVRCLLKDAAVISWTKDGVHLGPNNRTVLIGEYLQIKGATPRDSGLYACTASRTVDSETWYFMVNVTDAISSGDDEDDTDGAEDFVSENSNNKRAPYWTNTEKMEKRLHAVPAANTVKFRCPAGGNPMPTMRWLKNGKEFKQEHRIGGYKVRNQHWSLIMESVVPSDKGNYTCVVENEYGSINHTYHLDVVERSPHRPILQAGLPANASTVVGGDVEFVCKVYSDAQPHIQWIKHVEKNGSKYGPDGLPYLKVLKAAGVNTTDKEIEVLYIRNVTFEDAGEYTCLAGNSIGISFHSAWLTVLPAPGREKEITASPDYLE

Usually pKd stands for the negative decadic logarithm of the Kd, by convention in mol/L. WRARVPL peptide: the pKd was 5.85.
